# Literature values, collected in PMC5177622, “Multivalent Histone and DNA Engagement by a PHD/BRD/PWWP Triple Reader Cassette Recruits ZMYND8 to K14ac-Rich Chromatin” (Cell Reports, 2016).
# Like-named read-outs stand apart in the source and are kept apart here.
# Molecular target: T1, human BAZ2B (UniProt: Q9UIF8 residues 2054-2168) WT (Homo sapiens, UniProt Q9UIF8)
# T1 construct: residues 2054- 2168; made in house
# T1 sequence (Q9UIF8 2054-2168): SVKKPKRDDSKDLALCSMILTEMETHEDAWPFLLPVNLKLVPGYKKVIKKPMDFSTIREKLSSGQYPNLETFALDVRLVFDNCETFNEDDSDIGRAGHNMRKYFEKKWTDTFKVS
# Conditions: ITC
# Procedure: Titrations were carried out in 20 mM HEPES pH 7.5 (at 25 °C), 200 mM NaCl and 15 °C while stirring at 1000 rpm. Peptides were titrated into protein solutions. Data related to Fi gur e 5. [P] [Pep] KD ΔHobs TΔS ΔG B AZ 2 B Peptide (μM) (μM) (μM) ...
# [1] = ref Filippakopoulos et al., 2012
substance,measurement,setting,value
"H3(9-19)K14ac: histone H3 residues 9-19 peptide bearing K14ac; data from Filippakopoulos et al., 2012",Kd,[1],7.6 ± 0.3 µM
same,N,[1],0.99 ± 0.007
same,TΔS,[1],-2.27 kcal/mol
same,ΔG,[1],-6.64 kcal/mol
same,ΔHobs,[1],-8.91 ± 0.08 kcal/mol
"H3(5-25)K14ac: histone H3 residues 5-25 peptide bearing K14ac; data from Philpott et al., 2011",Kd,"ref Philpott et al., 2011",6.3 ± 0.2 µM
same,N,"ref Philpott et al., 2011",1.00 ± 0.007
same,TΔS,"ref Philpott et al., 2011",-0.12 kcal/mol
same,ΔG,"ref Philpott et al., 2011",-6.74 kcal/mol
same,ΔHobs,"ref Philpott et al., 2011",-6.86 ± 0.06 kcal/mol
